Laboratory results from article PMC4678028, “Oligomerization of Baculovirus LEF-11 Is Involved in Viral DNA Replication” (PLoS ONE, 2015).
Residue numbers refer to the chain shown, from its start. Names may count otherwise.

B1: BmNPV late expression factor 11 (LEF-11), cMYC- or FLAG-tagged, O92404 1-112 (natural protein)
chain: MPPKNCTHLGGCNSDCLTRSEIQALFREAINTLKHTMNTEDVCAHMLDIVSFERIKEYIRANLGHFTVITDKCSKRKVCLHHKRIARLLGIKKIYHQEYKRVVSKVYKNQTW
B2: DsRed-LEF11 (52–61) (domain or fragment)
chain: FERIKEYIRA
notes: LEF-11 of BmNPV, residues 52-61; source: BmN-SWU1 cells, transfected, in lysate; not shown: DsRed, N-terminal, kept
B3: DsRed-LEF11 (2–51) (domain or fragment)
chain: PPKNCTHLGGCNSDCLTRSEIQALFREAINTLKHTMNTEDVCAHMLDIVS
notes: LEF-11 of BmNPV, residues 2-51; source: BmN-SWU1 cells, transfected, in lysate; not shown: DsRed, N-terminal, kept
B4: DsRed-LEF11 (72–112) (domain or fragment)
chain: KCSKRKVCLHHKRIARLLGIKKIYHQEYKRVVSKVYKNQTW
notes: LEF-11 of BmNPV, residues 72-112; source: BmN-SWU1 cells, transfected, in lysate; not shown: DsRed, N-terminal, kept
B5: DsRed-LEF11 (72–101) (domain or fragment)
chain: KCSKRKVCLHHKRIARLLGIKKIYHQEYKR
notes: source: BmN-SWU1 cells, transfected, in lysate; not shown: DsRed, N-terminal, kept
B6: pIZ-DsRed-LEF11-I55E (natural protein)
chain: B1 chain with I55E
notes: LEF-11 of BmNPV with I55E; Probably the whole LEF-11 as in pIZ-DsRed-LEF11; source: BmN-SWU1 cells, transfected, in lysate; not shown: DsRed, N-terminal, kept
B7: pIZ-DsRed-LEF11-Y58E&I59E (natural protein)
chain: B1 chain with Y58E, I59E
notes: LEF-11 of BmNPV with Y58E and I59E; Probably the whole LEF-11 as in pIZ-DsRed-LEF11; also called YE58&I59E; source: BmN-SWU1 cells, transfected, in lysate; not shown: DsRed, N-terminal, kept
B8: pIZ-DsRed-LEF11-I85E (natural protein)
chain: B1 chain with I85E
notes: LEF-11 of BmNPV with I85E; Probably the whole LEF-11 as in pIZ-DsRed-LEF11; source: BmN-SWU1 cells, transfected, in lysate; not shown: DsRed, N-terminal, kept
B9: pIZ-DsRed-LEF11-L88E&L89E (natural protein)
chain: B1 chain with L88E, L89E
notes: LEF-11 of BmNPV with L88E and L89E; Probably the whole LEF-11 as in pIZ-DsRed-LEF11; source: BmN-SWU1 cells, transfected, in lysate; not shown: DsRed, N-terminal, kept
B10: DsRed-LEF11 (2–61) (domain or fragment)
chain: PPKNCTHLGGCNSDCLTRSEIQALFREAINTLKHTMNTEDVCAHMLDIVSFERIKEYIRA
notes: LEF-11 of BmNPV, residues 2-61; source: BmN-SWU1 cells, transfected, in lysate; not shown: DsRed, N-terminal, kept
B11: DsRed-LEF11 (62–112) (domain or fragment)
chain: NLGHFTVITDKCSKRKVCLHHKRIARLLGIKKIYHQEYKRVVSKVYKNQTW
notes: LEF-11 of BmNPV, residues 62-112; source: BmN-SWU1 cells, transfected, in lysate; not shown: DsRed, N-terminal, kept
B12: DsRed-LEF11 (12–61) (domain or fragment)
chain: CNSDCLTRSEIQALFREAINTLKHTMNTEDVCAHMLDIVSFERIKEYIRA
notes: LEF-11 of BmNPV, residues 12-61; source: BmN-SWU1 cells, transfected, in lysate; not shown: DsRed, N-terminal, kept
B13: DsRed-LEF11 (22–61) (domain or fragment)
chain: IQALFREAINTLKHTMNTEDVCAHMLDIVSFERIKEYIRA
notes: LEF-11 of BmNPV, residues 22-61; source: BmN-SWU1 cells, transfected, in lysate; not shown: DsRed, N-terminal, kept
B14: DsRed-LEF11 (32–61) (domain or fragment)
chain: TLKHTMNTEDVCAHMLDIVSFERIKEYIRA
notes: LEF-11 of BmNPV, residues 32-61; source: BmN-SWU1 cells, transfected, in lysate; not shown: DsRed, N-terminal, kept
B15: DsRed-LEF11 (42–61) (domain or fragment)
chain: VCAHMLDIVSFERIKEYIRA
notes: LEF-11 of BmNPV, residues 42-61; source: BmN-SWU1 cells, transfected, in lysate; not shown: DsRed, N-terminal, kept

Target: T1, BmNPV late expression factor 11 (LEF-11), cMYC- or FLAG-tagged (Bombyx mori nucleopolyhedrovirus (BmNPV)), O92404
T1 chain: B1 chain
Assay: non-reducing SDS-PAGE with western blot; lysate of BmN-SWU1 cells transfected with pIZ-LEF11^cMYC, 72 h.p.t.; loading buffer without β-mercaptoethanol; 12% SDS-PAGE; anti-cMYC blot
Conditions: remark: other sources report otherwise

Binder | stoichiometry N
B1 | 4

Target: the molecule itself
Assay: non-reducing SDS-PAGE with western blot; lysates of BmN-SWU1 cells transfected with pIZ-DsRed-LEF11 truncation or point mutant plasmids; loading buffer without β-mercaptoethanol; anti-DsRed blot
Conditions: not given

Binder | stoichiometry N
B2 | 2
B3 | 2
B4 | 2
B5 | 2
B6 | 2
B7 | 2
B8 | 2
B9 | 2
B10 | 2
B11 | 2
B12 | 2
B13 | 2
B14 | 2
B15 | 2
